Results on 19 molecules are retold here after patent US20210388087A1 (Chugai, published 2021).

T1: Human CD3eg linker (human)
T1 construct: Single chain: epsilon and gamma subunits of human CD3 joined by a 29-mer linker, Flag-tag at the C-terminus; also called recombinant human CD3
T1 chain: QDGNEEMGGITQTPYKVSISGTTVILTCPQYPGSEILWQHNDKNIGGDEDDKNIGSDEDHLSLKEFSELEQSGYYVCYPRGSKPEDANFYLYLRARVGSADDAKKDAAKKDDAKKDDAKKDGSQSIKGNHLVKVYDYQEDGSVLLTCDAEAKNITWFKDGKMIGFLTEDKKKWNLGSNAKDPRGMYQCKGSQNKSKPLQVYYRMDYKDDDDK

B1: H183/L072 VH N31S (antibody, name in Kabat numbering, V domains shown)
VH: QVQLVESGGGLVQPGRSLRLSCAASGFTFSSAWMHWVRQAPGKGLEWVAQIKDKGNAYAAYYAPSVKGRFTISRDDSKNSIYLQMNSLKTEDTAVYYCHYVHYASASTVLPAFGVDAWGQGTTVTVSS
VL: DIVMTQSPLSLPVTPGEPASISCQASQELVHMNRNTYLHWYQQKPGQAPRLLIYKVSNRFPGVPDRFSGSGSGTDFTLKISRVEAEDVGVYYCAQGTSVPFTFGQGTKLEIK
B2: H183/L072 VH N53E (antibody, name in Kabat numbering, V domains shown)
VH: QVQLVESGGGLVQPGRSLRLSCAASGFTFSNAWMHWVRQAPGKGLEWVAQIKDKGEAYAAYYAPSVKGRFTISRDDSKNSIYLQMNSLKTEDTAVYYCHYVHYASASTVLPAFGVDAWGQGTTVTVSS
VL: DIVMTQSPLSLPVTPGEPASISCQASQELVHMNRNTYLHWYQQKPGQAPRLLIYKVSNRFPGVPDRFSGSGSGTDFTLKISRVEAEDVGVYYCAQGTSVPFTFGQGTKLEIK
B3: H183/L072 VH N53M (antibody, name in Kabat numbering, V domains shown)
VH: QVQLVESGGGLVQPGRSLRLSCAASGFTFSNAWMHWVRQAPGKGLEWVAQIKDKGMAYAAYYAPSVKGRFTISRDDSKNSIYLQMNSLKTEDTAVYYCHYVHYASASTVLPAFGVDAWGQGTTVTVSS
VL: DIVMTQSPLSLPVTPGEPASISCQASQELVHMNRNTYLHWYQQKPGQAPRLLIYKVSNRFPGVPDRFSGSGSGTDFTLKISRVEAEDVGVYYCAQGTSVPFTFGQGTKLEIK
B4: H183/L072 VH N31W (antibody, name in Kabat numbering, V domains shown)
VH: QVQLVESGGGLVQPGRSLRLSCAASGFTFSWAWMHWVRQAPGKGLEWVAQIKDKGNAYAAYYAPSVKGRFTISRDDSKNSIYLQMNSLKTEDTAVYYCHYVHYASASTVLPAFGVDAWGQGTTVTVSS
VL: DIVMTQSPLSLPVTPGEPASISCQASQELVHMNRNTYLHWYQQKPGQAPRLLIYKVSNRFPGVPDRFSGSGSGTDFTLKISRVEAEDVGVYYCAQGTSVPFTFGQGTKLEIK
B5: H183/L072 VH N53R (antibody, name in Kabat numbering, V domains shown)
VH: QVQLVESGGGLVQPGRSLRLSCAASGFTFSNAWMHWVRQAPGKGLEWVAQIKDKGRAYAAYYAPSVKGRFTISRDDSKNSIYLQMNSLKTEDTAVYYCHYVHYASASTVLPAFGVDAWGQGTTVTVSS
VL: DIVMTQSPLSLPVTPGEPASISCQASQELVHMNRNTYLHWYQQKPGQAPRLLIYKVSNRFPGVPDRFSGSGSGTDFTLKISRVEAEDVGVYYCAQGTSVPFTFGQGTKLEIK
B6: H183/L072 VH N53G (antibody, name in Kabat numbering, V domains shown)
VH: QVQLVESGGGLVQPGRSLRLSCAASGFTFSNAWMHWVRQAPGKGLEWVAQIKDKGGAYAAYYAPSVKGRFTISRDDSKNSIYLQMNSLKTEDTAVYYCHYVHYASASTVLPAFGVDAWGQGTTVTVSS
VL: DIVMTQSPLSLPVTPGEPASISCQASQELVHMNRNTYLHWYQQKPGQAPRLLIYKVSNRFPGVPDRFSGSGSGTDFTLKISRVEAEDVGVYYCAQGTSVPFTFGQGTKLEIK
B7: H183/L072 VH N53I (antibody, name in Kabat numbering, V domains shown)
VH: QVQLVESGGGLVQPGRSLRLSCAASGFTFSNAWMHWVRQAPGKGLEWVAQIKDKGIAYAAYYAPSVKGRFTISRDDSKNSIYLQMNSLKTEDTAVYYCHYVHYASASTVLPAFGVDAWGQGTTVTVSS
VL: DIVMTQSPLSLPVTPGEPASISCQASQELVHMNRNTYLHWYQQKPGQAPRLLIYKVSNRFPGVPDRFSGSGSGTDFTLKISRVEAEDVGVYYCAQGTSVPFTFGQGTKLEIK
B8: H183/L072 VH N31Y (antibody, name in Kabat numbering, V domains shown)
VH: QVQLVESGGGLVQPGRSLRLSCAASGFTFSYAWMHWVRQAPGKGLEWVAQIKDKGNAYAAYYAPSVKGRFTISRDDSKNSIYLQMNSLKTEDTAVYYCHYVHYASASTVLPAFGVDAWGQGTTVTVSS
VL: DIVMTQSPLSLPVTPGEPASISCQASQELVHMNRNTYLHWYQQKPGQAPRLLIYKVSNRFPGVPDRFSGSGSGTDFTLKISRVEAEDVGVYYCAQGTSVPFTFGQGTKLEIK
B9: H183/L072 VH N53S (antibody, name in Kabat numbering, V domains shown)
VH: QVQLVESGGGLVQPGRSLRLSCAASGFTFSNAWMHWVRQAPGKGLEWVAQIKDKGSAYAAYYAPSVKGRFTISRDDSKNSIYLQMNSLKTEDTAVYYCHYVHYASASTVLPAFGVDAWGQGTTVTVSS
VL: DIVMTQSPLSLPVTPGEPASISCQASQELVHMNRNTYLHWYQQKPGQAPRLLIYKVSNRFPGVPDRFSGSGSGTDFTLKISRVEAEDVGVYYCAQGTSVPFTFGQGTKLEIK
B10: H183/L072 VH N53F (antibody, name in Kabat numbering, V domains shown)
VH: QVQLVESGGGLVQPGRSLRLSCAASGFTFSNAWMHWVRQAPGKGLEWVAQIKDKGFAYAAYYAPSVKGRFTISRDDSKNSIYLQMNSLKTEDTAVYYCHYVHYASASTVLPAFGVDAWGQGTTVTVSS
VL: DIVMTQSPLSLPVTPGEPASISCQASQELVHMNRNTYLHWYQQKPGQAPRLLIYKVSNRFPGVPDRFSGSGSGTDFTLKISRVEAEDVGVYYCAQGTSVPFTFGQGTKLEIK
B11: H183/L072 VH N53A (antibody, name in Kabat numbering, V domains shown)
VH: QVQLVESGGGLVQPGRSLRLSCAASGFTFSNAWMHWVRQAPGKGLEWVAQIKDKGAAYAAYYAPSVKGRFTISRDDSKNSIYLQMNSLKTEDTAVYYCHYVHYASASTVLPAFGVDAWGQGTTVTVSS
VL: DIVMTQSPLSLPVTPGEPASISCQASQELVHMNRNTYLHWYQQKPGQAPRLLIYKVSNRFPGVPDRFSGSGSGTDFTLKISRVEAEDVGVYYCAQGTSVPFTFGQGTKLEIK
B12: H183/L072 VH N53H (antibody, name in Kabat numbering, V domains shown)
VH: QVQLVESGGGLVQPGRSLRLSCAASGFTFSNAWMHWVRQAPGKGLEWVAQIKDKGHAYAAYYAPSVKGRFTISRDDSKNSIYLQMNSLKTEDTAVYYCHYVHYASASTVLPAFGVDAWGQGTTVTVSS
VL: DIVMTQSPLSLPVTPGEPASISCQASQELVHMNRNTYLHWYQQKPGQAPRLLIYKVSNRFPGVPDRFSGSGSGTDFTLKISRVEAEDVGVYYCAQGTSVPFTFGQGTKLEIK
B13: H183/L072 VH N53L (antibody, name in Kabat numbering, V domains shown)
VH: QVQLVESGGGLVQPGRSLRLSCAASGFTFSNAWMHWVRQAPGKGLEWVAQIKDKGLAYAAYYAPSVKGRFTISRDDSKNSIYLQMNSLKTEDTAVYYCHYVHYASASTVLPAFGVDAWGQGTTVTVSS
VL: DIVMTQSPLSLPVTPGEPASISCQASQELVHMNRNTYLHWYQQKPGQAPRLLIYKVSNRFPGVPDRFSGSGSGTDFTLKISRVEAEDVGVYYCAQGTSVPFTFGQGTKLEIK
B14: H183/L072 VH N53P (antibody, name in Kabat numbering, V domains shown)
VH: QVQLVESGGGLVQPGRSLRLSCAASGFTFSNAWMHWVRQAPGKGLEWVAQIKDKGPAYAAYYAPSVKGRFTISRDDSKNSIYLQMNSLKTEDTAVYYCHYVHYASASTVLPAFGVDAWGQGTTVTVSS
VL: DIVMTQSPLSLPVTPGEPASISCQASQELVHMNRNTYLHWYQQKPGQAPRLLIYKVSNRFPGVPDRFSGSGSGTDFTLKISRVEAEDVGVYYCAQGTSVPFTFGQGTKLEIK
B15: H183/L072 VH N53D (antibody, name in Kabat numbering, V domains shown)
VH: QVQLVESGGGLVQPGRSLRLSCAASGFTFSNAWMHWVRQAPGKGLEWVAQIKDKGDAYAAYYAPSVKGRFTISRDDSKNSIYLQMNSLKTEDTAVYYCHYVHYASASTVLPAFGVDAWGQGTTVTVSS
VL: DIVMTQSPLSLPVTPGEPASISCQASQELVHMNRNTYLHWYQQKPGQAPRLLIYKVSNRFPGVPDRFSGSGSGTDFTLKISRVEAEDVGVYYCAQGTSVPFTFGQGTKLEIK
B16: H183/L072 VH N53K (antibody, name in Kabat numbering, V domains shown)
VH: QVQLVESGGGLVQPGRSLRLSCAASGFTFSNAWMHWVRQAPGKGLEWVAQIKDKGKAYAAYYAPSVKGRFTISRDDSKNSIYLQMNSLKTEDTAVYYCHYVHYASASTVLPAFGVDAWGQGTTVTVSS
VL: DIVMTQSPLSLPVTPGEPASISCQASQELVHMNRNTYLHWYQQKPGQAPRLLIYKVSNRFPGVPDRFSGSGSGTDFTLKISRVEAEDVGVYYCAQGTSVPFTFGQGTKLEIK
B17: H183/L072 VH N31V (antibody, name in Kabat numbering, V domains shown)
VH: QVQLVESGGGLVQPGRSLRLSCAASGFTFSVAWMHWVRQAPGKGLEWVAQIKDKGNAYAAYYAPSVKGRFTISRDDSKNSIYLQMNSLKTEDTAVYYCHYVHYASASTVLPAFGVDAWGQGTTVTVSS
VL: DIVMTQSPLSLPVTPGEPASISCQASQELVHMNRNTYLHWYQQKPGQAPRLLIYKVSNRFPGVPDRFSGSGSGTDFTLKISRVEAEDVGVYYCAQGTSVPFTFGQGTKLEIK
B18: H183/L072 VH N31T (antibody, name in Kabat numbering, V domains shown)
VH: QVQLVESGGGLVQPGRSLRLSCAASGFTFSTAWMHWVRQAPGKGLEWVAQIKDKGNAYAAYYAPSVKGRFTISRDDSKNSIYLQMNSLKTEDTAVYYCHYVHYASASTVLPAFGVDAWGQGTTVTVSS
VL: DIVMTQSPLSLPVTPGEPASISCQASQELVHMNRNTYLHWYQQKPGQAPRLLIYKVSNRFPGVPDRFSGSGSGTDFTLKISRVEAEDVGVYYCAQGTSVPFTFGQGTKLEIK
B19: H183/L072 VH N53Q (antibody, name in Kabat numbering, V domains shown)
VH: QVQLVESGGGLVQPGRSLRLSCAASGFTFSNAWMHWVRQAPGKGLEWVAQIKDKGQAYAAYYAPSVKGRFTISRDDSKNSIYLQMNSLKTEDTAVYYCHYVHYASASTVLPAFGVDAWGQGTTVTVSS
VL: DIVMTQSPLSLPVTPGEPASISCQASQELVHMNRNTYLHWYQQKPGQAPRLLIYKVSNRFPGVPDRFSGSGSGTDFTLKISRVEAEDVGVYYCAQGTSVPFTFGQGTKLEIK

The target in the experiment is T1, Human CD3eg linker. In words: Biacore SPR, vs template H183/L072.
Regarding B1, the “fold change of affinity” value is 0.5 fold.
The figure for B2 is 0.5 fold.
In the case of B3, the “fold change of affinity” value came out at 0.5 fold.
Regarding B4, the “fold change of affinity” value amounted to 0.4 fold.
B5: the “fold change of affinity” value was 0.8 fold.
As to B6, the “fold change of affinity” value came out at 0.4 fold.
As to B7, the “fold change of affinity” value is 0.4 fold.
On to B8, for which the “fold change of affinity” value was found to be 0.3 fold.
Turning to B9, the “fold change of affinity” value is 0.8 fold.
To B10 belongs 0.8 fold; to B11, 0.7 fold.
Take B12: the “fold change of affinity” value is 1.1 fold.
To B13 belongs 0.6 fold; to B14, 0 fold; to B15, 0.4 fold.
Turning to B16, the “fold change of affinity” value is 0.6 fold.
Regarding B17, the “fold change of affinity” value amounted to 0.5 fold.
For the molecule B18, the “fold change of affinity” value was 0.6 fold.
To B19 belongs 0.5 fold.
